In the domain aggregation screens of Martell et al. (2025):

Test: soluble fraction after stress (log2 fold change); higher = more stays soluble; pooled small domains, quantitative proteomics
Conditions: stress: pH 4
Procedure, shortened: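 Aggregation propensity here comes from the fold change in the soluble amount of each small protein domain after acid stress, measured in pooled custom libraries by high-throughput quantitative proteomics. The acid stress was pH 4. On the log2 scale, higher values mean more of the domain stayed soluble.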

| Sequence | soluble fraction (log2) |
| --- | --- |
| HMQASIPQSQKDALAKELQALPPHGRNRVLSTFRQQFNISSEKISEFITTPEHLSFIRSKIAEVESDS | -0.529 |
| HMEVSYSLPRFHKGKNPYVDFYQVDPRTLRMRRKKFLLRGVRDAVLLEQRAADLVALLTERLHSGWNAWDD | -0.463 |
| HMNGVFIMHTPDGKVLRTEEGEEAVITLFNWSGQLLWSKTSLGQLPLPEGTQGVLQVQYKSGDQHTIKT | -0.425 |
| HMSVEVADITRAYYEGVGFEWWIRSVRLDPNELIVDNDDEGKLYRVPFEINGEEVTFGDPVEVKIRYE | -0.71 |
| HMEKEKIKEALIGYFEAEPEEKFTVQELADKLKMNKAGQFNFVVQAVAQLEHDKVITLDDEGNFSLVRHE | -0.967 |
| HMPSPFYIMDEVEAALDDTNLGRLITLFEELRDSSQLIVITHQKKTMEIADALYGVTMRGDGITTVVSQRL | -2.24 |
| HMKLNETIAEARKRKGLTQEQLAQKLYVTRQAVSRWERGEVVPGIDMLKLIAITLEEPIVHLL | -0.679 |
| HMYSKVSFTVSVGMTSERVSASLKALGIIDDSAKFNRYLVSNGYSTRIKVGTVELQAGQSYAEIASKLV | 0.151 |
| HMKSYAQIAEILSGQQPNTSRKEGSNLAVHADWIDALIAKYGTALRPEEANEVVKKEIGIVFSHVLEN | -1 |
| HMAVTNLTAKQISDTRWRVTWDSTLASPTYYVYRDGLLMMQTRQELYEFDAARGEQVQIDVLDDMAAAPAE | -0.459 |
| HMEGFSAGQFVRASVDNTAFYLKRPKGDAVADKLLRRGASMKVISASGDYLKVELDSGEVGFVPPVMVE | 0.0892 |
| HMALPPPELRGATGEAVTALRPAGIALIQGKRYDVLAEGGEWIAAGAAVRVRDIRNGHLIVSDA | 0.166 |
| HMSAPLKELGNDPESGKPIVVKDGRFGAYVTDGETNATLRKTDAVESLTPERAAELLAEKRAKG | 0.199 |
| HMNKTQLQIEDEVLKPLIAEIFSKSKGRFGARKIRSKLMGLGYTASERRILRLMKELGLSSAG | ≥ 0.43 |
| HMKDESYALGTRLLSHALGKTKLEDLAQEKIDEVVQQSGNKTLEQLLTNIGLGNALSIGIARQLT | ≥ 0.43 |
| HMATAEETTPLWARNRLSHAIFGPGSVTGEDERSFEVAFDNGDTLNFSKKSAHLYFTAMSSR | -0.808 |
| HMTTTFGWENLVGEKGIAATDLHPSGWVTVKDQRVFVVSEGTFIEEGKEVEIMNVDGNRIVVREFKN | -0.46 |
| HMDKPGMRLNQFIAHSGISSRREADNLIKAGLVQVNGKIIVEMGFRVMPTDIVKFNNETIAS | 0.378 |
| HMISEGDIIKGTVIDVNEEEVILDLKYYAQGVIKAENLSNDPDFLAAGKISVGDEIEATVIKMDDGEGNIE | -0.496 |
| HMATPSTGQVSVVRLNLRVSPSISSPVVTRLTQGDTVKILAASDDGRWYKVATADGRTGWLYTIYITAE | -0.209 |
| HMRSPIWKSITATLTAEIAGGQYRAGDKLPTEAELSQRFGVNRHTLRRALAEMAGAGLVVARRGAGVFVQG | -0.289 |
| HMQVDENNINKRIDKYLSENTEYSRSTIQKMIDNGNITVNSKPTKSSYKLELNDIITIDNNFKE | -0.0731 |
| HMLTGADAEKATAAAQAEFPGGTVLRVETDADGTYEAHVRKADGTEVEVKMDKDFKVTSVEE | -0.0221 |
| HMSVTSEIGAKIKYFRKSKHFSLQEMADLLYKSKSTLSKYENGQISIDIETLYAIAKVLGVHVEQLLYSEP | 0.222 |
| HMFGGIEFGWSQLPDGRVEYIIQLDDQAIAALKNGRSLTSSLPPEVQNADRIRIQYGAGPVEKGLLLQ | -0.0928 |
| HMGSVNDNVQKLTSQIGETTETGDTITPEDVELYKKMVDPLSTMAQKLEAAEILKLKGIIGSNGIIV | -0.0476 |

| Sequence | soluble fraction (log2) |
| --- | --- |
| HMGEMTDFETLRDMYLTGQIWNIDDLIEANGVEGRIVRRGTNYIAFNDRDGKVHKAWLHEVTINE | -1.39 |
| HMGGQKTREAIFDLIMTNSKITSAQIAEILGIHRSGVARHLKKLQEEGLIKREGPDNGGQWIVIK | -0.298 |
| HMQRQGTVATQQTPLNIRSQPSLSAQVIGQAPKGATVAILGESGDWYQIRYQNITGYSSKQYI | ≥ 0.43 |
| HMASLSITVNGETRRAAPGSIADLVRAIGLDPAKVAVERNGEIAPRSTLADVALADGDVLEIVHFVG | 0.147 |
| HMEYMKQRLYDIIELFKRSFSPSFSEEEKKKLENVLQDDFLRKAYEQLSDEVFIEEKFREFDGY | -2.28 |
| HMATTPEETILEYINKNNRISKQEIADLMGITRDGVSYHIKKLRKNGLLEWIGSPSNGHWEIIE | -0.52 |
| HMPGEATVPSVIGMTKAEAKAKLQASGFELGYSEFVASDKPKGEIVEQDPGAGETAKGGTEVNVKISDGS | -0.187 |
| HMQLTPAQHAILAYAIEHTGGKIEWFPDNIKGGARTKVLEGLFNKALITRDSTDWFVAAEGYDALGR | 0.428 |
| HMIYSKSDLELFGIKKIDVMEENILMLILSEYELDQTPKNILIDEAVRLSKKFGADNAYKFVNATLDTLL | -1.51 |
| HMHVLAVDEALHKLTELNELHAKIVEMRFFSGMTVQEVADELGVSKRKIESEWTMIKAWLRKELN | -0.916 |
| HMADPLQLLEQQRQDYIQAVTEYLNSHPNAKPIWDVMKKDAGYGDMKLTDIPLGILKKLYITLT | -0.137 |
| HMRMLLKELLIQYEVKNDKSHVEVAKEVGVSLSTYYRWLNGESLHLKKRTIDRLSEVLHYDINQVVEES | 0.0267 |
| HMIMPSDATEAKLLGVLGNEPLHVDEIRNQAELPIEKVSAALALMELKGMVRQVGGMNYVAVR | -0.263 |
| HMRKLHFVMSEIYEDHPWIGSKLQDVFLPKDIRVVLVERDSKQFMPNGQTLFELGDRLTLSALHYDPA | -2.22 |
| HMQEISQEEALATVLKDLSLTEADLKDLQITREEDKYKILFSKGQTAYDVLVSAKDGQLLQSKQETI | -0.359 |
| HMDLGTHMRLIVPTGMRVDHIVYESNGKNISVDHDRSISVRWNGEVVSIDVSPLPSRPDFDVLIYMSPK | -0.162 |
| HMRADYVGGLDPAGDNFLALRTGPGSGYAMILPMGPGTFVTVLRRNGKWLLVELEDGTRGWAYGSYILG | -1.16 |
| HMATARPPPPPESRVEVLFDGRWYAGTVVGGALDEHRATVFFDADRLSQVINFAETGIRVLGT | -0.575 |
| HMQEDKVRKLTEMGFAEDQAREALRKHDWDETMALNSL | -0.244 |
| HMRDKSITFSEFVKLLDEGQIQKVTLTGNEILGTQKSGDKFRTYAPPQYEGLGNKLVERSVEVTAKE | 0.188 |
| HMENTIESLLKAKGFNDIIVTVSDKQVDVVVSDKEIADNKRAQIEDVIKRKTGLEASAITITPA | -0.332 |
| HMTGELEVTAAGLSPEKLLNLAAKNHITLSNVKRLSYTQLSFRIGPADYNRLKKLLPEGRYKLNVGSS | -0.0957 |
| HMKLRKINLIGIFGSKTAPSALVRLTNGRVLKVGLGELLDGGRVTAIGRSSLTYNKSGKSITLNMPI | ≥ 0.43 |
| HMADEGFRQTVLAVLARWESKIHHGQYNALKAKVMNGNWSSFVKQVVKFQGKFIHPDAAKELLGLFG | -1.17 |
| HMSGDYRPLYPNLPESEKSEAFNLLAGSALPARLDDRTGDIMVPADRYYEARMILANAGFAD | 0.053 |
| HMNSSTVDLAKEFLIDLLSSVEKMPASEVQEEAKNAGYSVASIRRAKDNLNIKPFKDGSAWYWKLPSIFK | -0.447 |

| Sequence | soluble fraction (log2) |
| --- | --- |
| HMKKVIKIEENVSLQKLAALMSLKVTDVLMRLLSMGMSGVNINSTIDADTAKILASEFGWTVED | -0.669 |
| HMTKSTSMDLGGFMIVEGSETVRLGGQILQKDVDYTIDYFSGKINFISEEALNPGAEISVSYEENQ | -1.44 |
| HMEYPNEIARIFNQIPELNVSAVARTLGINKSLLSSYIYGMKKPSPERTEEIKSAIRKIGQNMLAV | 0.000369 |
| HMSIYMNIYNEFKKYIIANVYKYDDKLPSVRSIALEYGINPNTVQRAFQLLEDEGYIKTISKKGVYVNYR | 0.112 |
| HMEDELVMERFDINELVKSVVNANELRATQKNLSITYDILDTPLYVWADEYKVEEVVTNYLS | -1.06 |
| HMKEIYIDRGKEALEKELRKRKIPFQEFLSKENTNLLFDTLKIPSHDLEELYLEIGNGKHAASTVVNTVY | -0.0339 |
| HMHKKQEVQDSIDAAEEFMRASGVPAELITSKRAYAVKAIYADAVDKGTPDEIVKKDGMIVALISQMRS | -0.159 |
| HMNKMHKLPSVSEILNKVRLQKIHNESFIKFKIKEEIDRYRKLAKKDQLFLSRDEITYEIIEKLLNFSMPS | -0.771 |
| HMGQISDDGALKKLASEVLAANPQALADWKAGKQQAVSFLVGQAMKASKGRGDAALLGELIRAALD | 0.0477 |
| HMGMAETTARILQLLGLLQSRRGWSGQELAERLGVTTRSVRRDVERLRELGYPVHASAGHGGGYQLGA | -0.106 |
| HMGVGVPVTLLLEKLGEDTLSAQQIMERLGLKSRASFRKVYLVPALEQKLIEMEFPDKPNSSKQRYRR | -0.00401 |
| HMEMKHKNSQIFQAIKLKHMGFTPTQISEELRVSRTTINHWLTKAQLKDVKWEDIRENSADELVKLLFG | -0.322 |
| HMHEHWDGSGFPKHLRGANIPLGARVIAVADTYDSITSSRAYRAGSTHEAAEREMRRVSGTQLDPE | 0.0226 |
| HMRKIGDVLRLHAGGLSKRRIAVSLNIGRTAVGDYISRARRAGLGWPLPEDLSEEALERLLFPPP | 0.151 |
| HMQEPVHFTRRERQVLSLILSGQATAEIAKTLGIANATVTTYKKSLYSKSGTNSLSRLLIWAMVRR | -0.332 |
| HMANLDSLIKKVGQYAKDKQSISVDGIKKDLSIDKDMVKEALAELLKIGVVDKPDEAGQYKVIM | 0.0802 |
| HMTNIQFINLKMTDNHPWIHQYIKDIILPPQTRIVMIKRNDIKTIPKGERRIEKDDELILSAFESQT | -1.27 |
| HMNVVSIEHIRTHLQNHLSLIGRSIEESFNEAKVIAFVASLFLTHRGYASVSQDMGTNGEIYLQDLW | -0.0149 |
| HMLSDEDMMELAIIENLQRENLNPIEEARAYESLIDKGFTHTEIADKMGKSRPYISNSIRLLSL | -1.38 |
| HMGVEVEVPNVKGKLVADAEYELGLAQLTPVRTDSAYNRNLPPGTVLEQLPASGSHVKEGREIYLTINST | 0.155 |
| HMVLSVRERMGIVLEKVNTETFTDFKELFTVEEGRAGAIVSLLAILQLMKDSLIQLVQNEPNGPIYVKAA | 0.22 |
| HMSHKYKLTVPETGEGTRVDKFLSSALTELSRTRLKSLIEEGQVTLGGVKLTNPSHRVKSGDELNIEIPVP | 0.0568 |
| HMVKDIEFSLPLEQDYYKVLISVKDSQGKRQVYEELHRAGDTVYAAVRYYGSGELEIHLNGKFYKTIK | -1.6 |
| HMTSTEQEILIEHMVDRLPALRKKYGISQTELGEKIGLSRQTISAIERKTTPLTWTTMLAILMFFT | -0.425 |
